Target: T1, 4-1BB-GST fusion protein (human 4-1BB fused to glutathione-S-transferase, expressed in E. coli) (human, UniProt Q07011 24-186)
T1 construct: The order of the parts follows the printed name 4-1BB-GST; not shown: glutathione-S-transferase (GST) from the pGEX3 vector (Pharmacia)
Test: ELISA, transfectant culture supernatant on 4-1BB-GST antigen; reference is 293 EBNA cultured supernatant
Method: The completely humanized sequence to constant region was subcloned to pcDNA, a eukaryote expressing vectors, transfected into 293EBNA cells and serial analyses i.e., ELISA and western blotting analysis were performed using by the cell medium. 4-1BB-GST was used as an antigen for ELISA and each 50 numbers of transfectant medium was used therein.

B1: completely humanized antibody HBBK4-75 (H2L2) (antibody, V domains shown)
VH: QVQLQQSGAEVIKPGASVKLSCKASGYTFSSYWMHWVRQAPGQGLEWIGEINPGNGHTNYNEKFKSRATLTGDTSTSTVYMELSSLRSEDTAVYYCARSFTTARAFAYWGQGTLVTVSS
VL: DIVMTQSPAFLSVTPGEKVTITCRASQTISDYLHWYQQKPDQAPKLLIKYASQSISGIPSRFSGSGSGTDFTFTISSLEAEDAATYYCQDGHSFPPTFGQGTKLEIKT
notes: the VH is the same in both; also called clone 75; HBBK4-75/pcDNA
fold over negative control (ELISA): ~15 times

— US20090041763A1 (UNIVERSITY OF ULSAN FOUNDATION FOR INDUSTRY COOPERATION, published 2009)
